What is called stoichiometry N is a count of units in the complex or per binding partner.

For one substance, stoichiometry N results are on record in publication PMC5969255.

This assay concerns the target MnSOD-3[Q142H], site-directed mutant of the manganese superoxide dismutase SOD-3 of C. elegans (C. elegans) (UniProt P41977). Kind of assay: crystal structure.

“MnSOD-3[Q142H], site-directed mutant of the manganese superoxide dismutase SOD-3 of C. elegans (from UniProt P41977 25-218) (enzyme)” had a stoichiometry N of 4.
